*1 amine or outer side, *2 acyl side, *3 side chain or, on linkers, in order; H or OH if unused. Side-chain parts run from the residue outwards. The star is where a group is joined. C18 diacid = O=C(O)CCCCCCCCCCCCCCCCC(=O)*; γGlu = O=C(O)[C@H](CCC(=O)[*:2])N[*:1]; Isovaleryl = CC(C)CC(=O)*; Ahx = NCCCCCC(=O)O
T1: human NPY2 receptor (human, UniProt P49146 1-381)
T1 construct: whole, on cells; also called hNPY2-R; hNPY2R
T1 sequence (looked up): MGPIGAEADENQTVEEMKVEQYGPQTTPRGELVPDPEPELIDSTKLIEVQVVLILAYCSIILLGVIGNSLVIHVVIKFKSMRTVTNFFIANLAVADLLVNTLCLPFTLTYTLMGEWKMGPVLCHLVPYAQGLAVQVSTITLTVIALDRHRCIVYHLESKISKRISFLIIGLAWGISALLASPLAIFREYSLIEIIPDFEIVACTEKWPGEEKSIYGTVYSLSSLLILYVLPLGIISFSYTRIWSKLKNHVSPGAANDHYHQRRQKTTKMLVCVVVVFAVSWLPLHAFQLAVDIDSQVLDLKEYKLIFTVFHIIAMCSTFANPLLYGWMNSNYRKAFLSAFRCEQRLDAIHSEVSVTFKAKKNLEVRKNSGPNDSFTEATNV

B1: Compound 8 (peptide)
peptide: Isovaleryl-APEK([Ahx-γGlu-C18 diacid])PEEDETPEELQRYYVSLRHYYNWLTRQRY-NH2
SMILES: CC(C)CC(=O)N[C@@H](C)C(=O)N1CCC[C@H]1C(=O)N[C@@H](CCC(=O)O)C(=O)N[C@@H](CCCCNC(=O)CCCCCNC(=O)CC[C@H](NC(=O)CCCCCCCCCCCCCCCCC(=O)O)C(=O)O)C(=O)N1CCC[C@H]1C(=O)N[C@@H](CCC(=O)O)C(=O)N[C@@H](CCC(=O)O)C(=O)N[C@@H](CC(=O)O)C(=O)N[C@@H](CCC(=O)O)C(=O)N[C@H](C(=O)N1CCC[C@H]1C(=O)N[C@@H](CCC(=O)O)C(=O)N[C@@H](CCC(=O)O)C(=O)N[C@@H](CC(C)C)C(=O)N[C@@H](CCC(N)=O)C(=O)N[C@@H](CCCNC(=N)N)C(=O)N[C@@H](Cc1ccc(O)cc1)C(=O)N[C@@H](Cc1ccc(O)cc1)C(=O)N[C@H](C(=O)N[C@@H](CO)C(=O)N[C@@H](CC(C)C)C(=O)N[C@@H](CCCNC(=N)N)C(=O)N[C@@H](Cc1c[nH]cn1)C(=O)N[C@@H](Cc1ccc(O)cc1)C(=O)N[C@@H](Cc1ccc(O)cc1)C(=O)N[C@@H](CC(N)=O)C(=O)N[C@@H](Cc1c[nH]c2ccccc12)C(=O)N[C@@H](CC(C)C)C(=O)N[C@H](C(=O)N[C@@H](CCCNC(=N)N)C(=O)N[C@@H](CCC(N)=O)C(=O)N[C@@H](CCCNC(=N)N)C(=O)N[C@@H](Cc1ccc(O)cc1)C(N)=O)[C@@H](C)O)C(C)C)[C@@H](C)O
B2: Compound 9 (peptide)
peptide: Isovaleryl-APEK([Ahx-γGlu-C18 diacid])PEEQATPEELQRYYVSLRHYYNWLTRQRY-NH2
SMILES: CC(C)CC(=O)N[C@@H](C)C(=O)N1CCC[C@H]1C(=O)N[C@@H](CCC(=O)O)C(=O)N[C@@H](CCCCNC(=O)CCCCCNC(=O)CC[C@H](NC(=O)CCCCCCCCCCCCCCCCC(=O)O)C(=O)O)C(=O)N1CCC[C@H]1C(=O)N[C@@H](CCC(=O)O)C(=O)N[C@@H](CCC(=O)O)C(=O)N[C@@H](CCC(N)=O)C(=O)N[C@@H](C)C(=O)N[C@H](C(=O)N1CCC[C@H]1C(=O)N[C@@H](CCC(=O)O)C(=O)N[C@@H](CCC(=O)O)C(=O)N[C@@H](CC(C)C)C(=O)N[C@@H](CCC(N)=O)C(=O)N[C@@H](CCCNC(=N)N)C(=O)N[C@@H](Cc1ccc(O)cc1)C(=O)N[C@@H](Cc1ccc(O)cc1)C(=O)N[C@H](C(=O)N[C@@H](CO)C(=O)N[C@@H](CC(C)C)C(=O)N[C@@H](CCCNC(=N)N)C(=O)N[C@@H](Cc1c[nH]cn1)C(=O)N[C@@H](Cc1ccc(O)cc1)C(=O)N[C@@H](Cc1ccc(O)cc1)C(=O)N[C@@H](CC(N)=O)C(=O)N[C@@H](Cc1c[nH]c2ccccc12)C(=O)N[C@@H](CC(C)C)C(=O)N[C@H](C(=O)N[C@@H](CCCNC(=N)N)C(=O)N[C@@H](CCC(N)=O)C(=O)N[C@@H](CCCNC(=N)N)C(=O)N[C@@H](Cc1ccc(O)cc1)C(N)=O)[C@@H](C)O)C(C)C)[C@@H](C)O
B3: Compound 13 (peptide)
peptide: Isovaleryl-APEK([Ahx-γGlu-C18 diacid])PEADASPEETQRYYVSLRHYYNWLTRQRY-NH2
SMILES: CC(C)CC(=O)N[C@@H](C)C(=O)N1CCC[C@H]1C(=O)N[C@@H](CCC(=O)O)C(=O)N[C@@H](CCCCNC(=O)CCCCCNC(=O)CC[C@H](NC(=O)CCCCCCCCCCCCCCCCC(=O)O)C(=O)O)C(=O)N1CCC[C@H]1C(=O)N[C@@H](CCC(=O)O)C(=O)N[C@@H](C)C(=O)N[C@@H](CC(=O)O)C(=O)N[C@@H](C)C(=O)N[C@@H](CO)C(=O)N1CCC[C@H]1C(=O)N[C@@H](CCC(=O)O)C(=O)N[C@@H](CCC(=O)O)C(=O)N[C@H](C(=O)N[C@@H](CCC(N)=O)C(=O)N[C@@H](CCCNC(=N)N)C(=O)N[C@@H](Cc1ccc(O)cc1)C(=O)N[C@@H](Cc1ccc(O)cc1)C(=O)N[C@H](C(=O)N[C@@H](CO)C(=O)N[C@@H](CC(C)C)C(=O)N[C@@H](CCCNC(=N)N)C(=O)N[C@@H](Cc1c[nH]cn1)C(=O)N[C@@H](Cc1ccc(O)cc1)C(=O)N[C@@H](Cc1ccc(O)cc1)C(=O)N[C@@H](CC(N)=O)C(=O)N[C@@H](Cc1c[nH]c2ccccc12)C(=O)N[C@@H](CC(C)C)C(=O)N[C@H](C(=O)N[C@@H](CCCNC(=N)N)C(=O)N[C@@H](CCC(N)=O)C(=O)N[C@@H](CCCNC(=N)N)C(=O)N[C@@H](Cc1ccc(O)cc1)C(N)=O)[C@@H](C)O)C(C)C)[C@@H](C)O
B4: Compound 20 (peptide)
peptide: Isovaleryl-APAK([Ahx-γGlu-C18 diacid])PEEDASPEELQRYQVSLRHYYNWLTRQRY-NH2
SMILES: CC(C)CC(=O)N[C@@H](C)C(=O)N1CCC[C@H]1C(=O)N[C@@H](C)C(=O)N[C@@H](CCCCNC(=O)CCCCCNC(=O)CC[C@H](NC(=O)CCCCCCCCCCCCCCCCC(=O)O)C(=O)O)C(=O)N1CCC[C@H]1C(=O)N[C@@H](CCC(=O)O)C(=O)N[C@@H](CCC(=O)O)C(=O)N[C@@H](CC(=O)O)C(=O)N[C@@H](C)C(=O)N[C@@H](CO)C(=O)N1CCC[C@H]1C(=O)N[C@@H](CCC(=O)O)C(=O)N[C@@H](CCC(=O)O)C(=O)N[C@@H](CC(C)C)C(=O)N[C@@H](CCC(N)=O)C(=O)N[C@@H](CCCNC(=N)N)C(=O)N[C@@H](Cc1ccc(O)cc1)C(=O)N[C@@H](CCC(N)=O)C(=O)N[C@H](C(=O)N[C@@H](CO)C(=O)N[C@@H](CC(C)C)C(=O)N[C@@H](CCCNC(=N)N)C(=O)N[C@@H](Cc1c[nH]cn1)C(=O)N[C@@H](Cc1ccc(O)cc1)C(=O)N[C@@H](Cc1ccc(O)cc1)C(=O)N[C@@H](CC(N)=O)C(=O)N[C@@H](Cc1c[nH]c2ccccc12)C(=O)N[C@@H](CC(C)C)C(=O)N[C@H](C(=O)N[C@@H](CCCNC(=N)N)C(=O)N[C@@H](CCC(N)=O)C(=O)N[C@@H](CCCNC(=N)N)C(=O)N[C@@H](Cc1ccc(O)cc1)C(N)=O)[C@@H](C)O)C(C)C
B5: Compound 19 (peptide)
peptide: Isovaleryl-APEK([Ahx-γGlu-C18 diacid])PEEDATEEELQRYYVSLRHYYNWLTRQRY-NH2
SMILES: CC(C)CC(=O)N[C@@H](C)C(=O)N1CCC[C@H]1C(=O)N[C@@H](CCC(=O)O)C(=O)N[C@@H](CCCCNC(=O)CCCCCNC(=O)CC[C@H](NC(=O)CCCCCCCCCCCCCCCCC(=O)O)C(=O)O)C(=O)N1CCC[C@H]1C(=O)N[C@@H](CCC(=O)O)C(=O)N[C@@H](CCC(=O)O)C(=O)N[C@@H](CC(=O)O)C(=O)N[C@@H](C)C(=O)N[C@H](C(=O)N[C@@H](CCC(=O)O)C(=O)N[C@@H](CCC(=O)O)C(=O)N[C@@H](CCC(=O)O)C(=O)N[C@@H](CC(C)C)C(=O)N[C@@H](CCC(N)=O)C(=O)N[C@@H](CCCNC(=N)N)C(=O)N[C@@H](Cc1ccc(O)cc1)C(=O)N[C@@H](Cc1ccc(O)cc1)C(=O)N[C@H](C(=O)N[C@@H](CO)C(=O)N[C@@H](CC(C)C)C(=O)N[C@@H](CCCNC(=N)N)C(=O)N[C@@H](Cc1c[nH]cn1)C(=O)N[C@@H](Cc1ccc(O)cc1)C(=O)N[C@@H](Cc1ccc(O)cc1)C(=O)N[C@@H](CC(N)=O)C(=O)N[C@@H](Cc1c[nH]c2ccccc12)C(=O)N[C@@H](CC(C)C)C(=O)N[C@H](C(=O)N[C@@H](CCCNC(=N)N)C(=O)N[C@@H](CCC(N)=O)C(=O)N[C@@H](CCCNC(=N)N)C(=O)N[C@@H](Cc1ccc(O)cc1)C(N)=O)[C@@H](C)O)C(C)C)[C@@H](C)O
B6: Compound 17 (peptide)
peptide: Isovaleryl-APEK([Ahx-γGlu-C18 diacid])PEEDATPEEIQRYYPSLRHYYNWLTRQRY-NH2
SMILES: CC[C@H](C)[C@H](NC(=O)[C@H](CCC(=O)O)NC(=O)[C@H](CCC(=O)O)NC(=O)[C@@H]1CCCN1C(=O)[C@@H](NC(=O)[C@H](C)NC(=O)[C@H](CC(=O)O)NC(=O)[C@H](CCC(=O)O)NC(=O)[C@H](CCC(=O)O)NC(=O)[C@@H]1CCCN1C(=O)[C@H](CCCCNC(=O)CCCCCNC(=O)CC[C@H](NC(=O)CCCCCCCCCCCCCCCCC(=O)O)C(=O)O)NC(=O)[C@H](CCC(=O)O)NC(=O)[C@@H]1CCCN1C(=O)[C@H](C)NC(=O)CC(C)C)[C@@H](C)O)C(=O)N[C@@H](CCC(N)=O)C(=O)N[C@@H](CCCNC(=N)N)C(=O)N[C@@H](Cc1ccc(O)cc1)C(=O)N[C@@H](Cc1ccc(O)cc1)C(=O)N1CCC[C@H]1C(=O)N[C@@H](CO)C(=O)N[C@@H](CC(C)C)C(=O)N[C@@H](CCCNC(=N)N)C(=O)N[C@@H](Cc1c[nH]cn1)C(=O)N[C@@H](Cc1ccc(O)cc1)C(=O)N[C@@H](Cc1ccc(O)cc1)C(=O)N[C@@H](CC(N)=O)C(=O)N[C@@H](Cc1c[nH]c2ccccc12)C(=O)N[C@@H](CC(C)C)C(=O)N[C@H](C(=O)N[C@@H](CCCNC(=N)N)C(=O)N[C@@H](CCC(N)=O)C(=O)N[C@@H](CCCNC(=N)N)C(=O)N[C@@H](Cc1ccc(O)cc1)C(N)=O)[C@@H](C)O

What follows are binders tested against T1, human NPY2 receptor (assay: RLB: displacement of 125I-PYY(1-36) from hNPY2R membranes).
Method: The filtration RLB assay was carried out in 96-well plates in a final volume of 100 μl per well. Freeze-dried test peptides were dissolved in 100% dimethyl sulfoxide (DMSO) to stock solutions of 1 mM and serial dilutions were performed in assay buffer (50 mM HEPES, 5 mM MgCl₂, 1 mM CaCl₂), pH 7.4) containing 0.2% ovalbumin. […] Next, 80 μL membranes (HTS066M, ChemiSCREEN™ Human Neuropeptide Y2 Receptor Membrane Preparation, CHEMICON) were added to each well to give a final protein concentration of 0.5 μg/well. The plates were sealed and incubated at room temperature for 2 hours in a plate shaker set at 400 rpm. The incubation was stopped by vacuum filtration onto 0.5% polyethylene amine (PEI) presoaked GF/C filters using a 96-well FilterMate™ harvester (Perkin Elmer) followed by four washes with 300 μl/well ice-cold wash buffer (50 mM HEPES, 500 mM NaCl, pH7.4). Filter plates were then dried for 60 min at room temperature and the bottom of the plates was sealed with backing tape UniFilter-96. Finally, 50 μl/well scintillation counter cocktail (Microscint20, Packard) was added and the radioactivity was counted in the Packard TopCount NXT scintillation counter. IC₅₀ values (the half maximal inhibitory concentration of the agonist) were calculated by nonlinear regression analysis of sigmoidal dose-response curves.

Ki [nM]	Binder
106	B1
3.32	B2
1.53	B3
2.41	B4
9.63	B5
24.6	B6

— US20260015399A1 (Boehringer Ingelheim, published 2026)
